Measurements from patent US6372459B1, “N-acetyl amino acid racemase” (Degussa AG, priority 1999, dated 2002).

Tests used:
[1] = standard enzyme test for racemase (AAR) activity, HPLC detection; format: biochemical, Amycolatopsis orientalis subspecies lurida; settings: N-unprotected amino acids as substrate
[2] = as above; format: biochemical, Amycolatopsis orientalis subspecies lurida
Excerpt: The AAR activity was followed up in a coupled enzymatic assay (Diagram 1), in that the formation of a deacetylated amino acid from an N-acetyl-D-amino acid, methionine here, was detected using the HPLC system I. The L-specific […] from pig kidneys or Aspergillus oryzae served as the auxiliary enzymes. [drawing 1]
Further characterization of the AAR took place using the HPLC system II. Using this system, it was possible to study the activity of the AAR directly. In this way, it was possible to do without the auxiliary enzyme, the acylase, so that it was possible to avoid disruptive interference activity.
Crude extracts of the superexpression clone, […]. purified enzyme fractions, were used in an enzyme test, in that it was possible to detect the formation of L-methionine from N-acetyl-D-methionine (see Diagram 1), via HPLC:
The standard enzyme test (modified according to Tokuyama et al., Appl. Microbiol. Biotechnol. (1994), 40, 835-840; ibid., Appl. Microbiol. Biotechnol. (1995a), 42, 853-859), was composed as follows:
Solvent: Tris/HCl, pH 7.5, 50 mM
N-acetyl-D-methionine 25 mM
Acylase I (ASch or AAsp) 1 U
Protein 2-150 μg purified protein or total protein
In this connection, acylase I and Co^2+ are present in excess, so that the AAR reaction is the step that determines the speed. Incubation took place for 10-40 min at 30° C. The reaction was then stopped by boiling for 3 min. Analysis of the reaction products took place using HPLC (System I).
Unless mentioned otherwise, acylase I from pig kidneys (ASch) was used in the enzyme test, and Co^2+, was used as the ion (CoCl2×6H2O). Alternatively, however, acylase I from Aspergillus oryzae (AAsp) was also used.
In assays that were analyzed using the HPLC system II, the acylase could be left out, since it is possible to separate and analyze N-acetyl amino acids directly, enantioselectively, with this system.
Other than Co^2+ (CoCl2×6H2O), other bivalent ions, such as MnCl2×4H2O, […], and MgCl2×6H2O were used in various concentrations (0.1-10 mM).
Substrate inhibition was tested in that the activity of the AAR was mixed with 25 to 400 mM N-acetyl-D-methionine as the substrate.

B1: AAR from A. orientalis subspecies lurida: N-acetyl amino acid racemase (SEQ ID NO: 2) from Amycolatopsis orientalis subspecies lurida, natural or recombinant enzyme (protein)
chain: VKLSGVELRRVRMPLVAPFRTSFGTQSERELLLVRAVTPAGEGWGECVAMEAPLYSSEYNDAAEHVLRNHLIPALLAAEDVTAHKVTPLLAKFKGHRMAKGALEMAVLDAELRAHDRSFAAELGSTRDSVACGVSVGIMDSIPHLLDVVGGYLDEGYVRIKLKIEPGWDVEPVRQVRERFGDDVLLQVDANTAYTLGDAPLLSRLDPFDLLLIEQPLEEEDVLGHAELAKRIRTPICLDESIVSAKAAADAIKLGACQIVNIKPGRVGGYLEARRVHDVCAAHGIAVWCGGMIETGLGRAANVALASLPGFTLPGDTSASGRFYRTDITEPFVLDAGHLPVPTGPGLGVTPIPDLLDEVTTEKAWIGS
- conversion of amino acids not protected with N-acetyl [1]: does not convert
- conversion of amino acids not protected with N-acetyl ([1]; listed as AAR): not converted
- optimum pH [2]: 8
- increase in the activity as compared with the activity without metal ion ([2]; 1 mM CoCl2×6H2O in the assay): 1250%
- specific AAR activity after purification ([2]; 2 mM CoCl2×6H2O in the assay): 30.6 U/mg
- specific activity higher than the one found for racemase by Tokuyama and Hatano ([2]; 2 mM CoCl2×6H2O in the assay): approximately 30.8%
- activity ([2]; 10 mM CoCl2×6H2O in the assay): 37.5 U/mg
- activity with Mg in comparison with cobalt substitution ([2]; MgCl2×6H2O at 10 mM, standard enzyme assay): about 40%
- activity with Mn in comparison with cobalt substitution ([2]; MnCl2×4H2O at 10 mM, standard enzyme assay): about 40%
- substrate concentration at which substrate inhibition occurs ([2]; N-acetyl-D-methionine as substrate, 25 to 400 mM tested): greater than 200 mM
- AAR activity in crude extracts of the expression clone ([2]; crude extracts of E. coli BL21 (DE3) with pAAR3-21I): 0.6-1.2 U/mg total protein
- more active than the racemase from A. sp. TS-1-60 ([2]; same CoCl2×6H2O concentration in the assay): 152%
